Results from US20220185900A1.

Molecular target: human RET on cells (MCF7/SRE-Luc; HEK293/hGFRα3/hRET/SRE-Luc; HEK293/hGFRα1/hRET/SRE-Luc) (human), P07949
Assay: cell-based or functional assay

B1: H4H7086N (antibody, human IgG4, V domains shown)
VH: QVQLVESGGGVVQPGRSLRLSCVVSGFTFSNYGMHWVRQGPGRGLEWLALIWYDGSDKYYAESVRGRFTISRDNSKNTVYLQMNSLRAEDTAMYYCTRDRIFDYWGQGTLVTVSS
VL: AIQMTQSPSSLSASVGDRVTITCRASQDIRNDLGWYQHNPGKAPNLLIYAASTLQIGVPSRFRGSGSGTDFTLTISSLQPEDFATYYCLQDFDYPLSFGGGTKVEIR
B1 gave an Internalization (% H4H8087P), HEK293/hGFRa1/hRET/SRE-Luc cells, 37 C of 59%.
